Data taken from the Human Domainome abundance scans (Beltran et al. 2025).
± gives the uncertainty stated by the source.

test: abundance fitness (aPCA) (normalised: wild type 0, dead -1); higher = more abundant; growth selection in yeast, the domain comes from the species named; settings: Homo sapiens

Substance | abundance fitness
Lipoamide acyltransferase component of branched-chain alpha-keto acid dehydrogenase complex, mitochondrial V191T, P11182 | -0.696 ± 0.079
Lipoamide acyltransferase component of branched-chain alpha-keto acid dehydrogenase complex, mitochondrial V191W, P11182 | -0.899 ± 0.064
Lipoamide acyltransferase component of branched-chain alpha-keto acid dehydrogenase complex, mitochondrial V191Y, P11182 | -0.772 ± 0.067
Lipoamide acyltransferase component of branched-chain alpha-keto acid dehydrogenase complex, mitochondrial V192A, P11182 | -0.009 ± 0.045
Lipoamide acyltransferase component of branched-chain alpha-keto acid dehydrogenase complex, mitochondrial V192C, P11182 | -0.017 ± 0.055
Lipoamide acyltransferase component of branched-chain alpha-keto acid dehydrogenase complex, mitochondrial V192D, P11182 | -0.159 ± 0.12
Lipoamide acyltransferase component of branched-chain alpha-keto acid dehydrogenase complex, mitochondrial V192E, P11182 | 0.023 ± 0.045
Lipoamide acyltransferase component of branched-chain alpha-keto acid dehydrogenase complex, mitochondrial V192F, P11182 | -0.31 ± 0.21
Lipoamide acyltransferase component of branched-chain alpha-keto acid dehydrogenase complex, mitochondrial V192I, P11182 | -0.041 ± 0.086
Lipoamide acyltransferase component of branched-chain alpha-keto acid dehydrogenase complex, mitochondrial V192K, P11182 | 0.062 ± 0.046
Lipoamide acyltransferase component of branched-chain alpha-keto acid dehydrogenase complex, mitochondrial V192L, P11182 | -0.068 ± 0.044
Lipoamide acyltransferase component of branched-chain alpha-keto acid dehydrogenase complex, mitochondrial V192M, P11182 | -0.066 ± 0.1
Lipoamide acyltransferase component of branched-chain alpha-keto acid dehydrogenase complex, mitochondrial V192N, P11182 | -0.073 ± 0.062
Lipoamide acyltransferase component of branched-chain alpha-keto acid dehydrogenase complex, mitochondrial V192P, P11182 | 0.011 ± 0.05
Lipoamide acyltransferase component of branched-chain alpha-keto acid dehydrogenase complex, mitochondrial V192Q, P11182 | -0.023 ± 0.046
Lipoamide acyltransferase component of branched-chain alpha-keto acid dehydrogenase complex, mitochondrial V192R, P11182 | -0.027 ± 0.038
Lipoamide acyltransferase component of branched-chain alpha-keto acid dehydrogenase complex, mitochondrial V192S, P11182 | -0.041 ± 0.053
Lipoamide acyltransferase component of branched-chain alpha-keto acid dehydrogenase complex, mitochondrial V192T, P11182 | 0.046 ± 0.052
Lipoamide acyltransferase component of branched-chain alpha-keto acid dehydrogenase complex, mitochondrial V192Y, P11182 | -0.141 ± 0.079
Lipoamide acyltransferase component of branched-chain alpha-keto acid dehydrogenase complex, mitochondrial Y208A, P11182 | 0.018 ± 0.036
Lipoamide acyltransferase component of branched-chain alpha-keto acid dehydrogenase complex, mitochondrial Y208C, P11182 | 0.037 ± 0.092
Lipoamide acyltransferase component of branched-chain alpha-keto acid dehydrogenase complex, mitochondrial Y208D, P11182 | -0.213 ± 0.06
Lipoamide acyltransferase component of branched-chain alpha-keto acid dehydrogenase complex, mitochondrial Y208E, P11182 | -0.032 ± 0.041
Lipoamide acyltransferase component of branched-chain alpha-keto acid dehydrogenase complex, mitochondrial Y208F, P11182 | -0.061 ± 0.084
Lipoamide acyltransferase component of branched-chain alpha-keto acid dehydrogenase complex, mitochondrial Y208G, P11182 | -0.172 ± 0.036
Lipoamide acyltransferase component of branched-chain alpha-keto acid dehydrogenase complex, mitochondrial Y208H, P11182 | -0.075 ± 0.097
Lipoamide acyltransferase component of branched-chain alpha-keto acid dehydrogenase complex, mitochondrial Y208I, P11182 | -0.072 ± 0.063
Lipoamide acyltransferase component of branched-chain alpha-keto acid dehydrogenase complex, mitochondrial Y208K, P11182 | 0.051 ± 0.06

Substance | abundance fitness
Lipoamide acyltransferase component of branched-chain alpha-keto acid dehydrogenase complex, mitochondrial Y208L, P11182 | -0.032 ± 0.047
Lipoamide acyltransferase component of branched-chain alpha-keto acid dehydrogenase complex, mitochondrial Y208M, P11182 | 0.012 ± 0.052
Lipoamide acyltransferase component of branched-chain alpha-keto acid dehydrogenase complex, mitochondrial Y208N, P11182 | -0.162 ± 0.061
Lipoamide acyltransferase component of branched-chain alpha-keto acid dehydrogenase complex, mitochondrial Y208P, P11182 | -0.283 ± 0.044
Lipoamide acyltransferase component of branched-chain alpha-keto acid dehydrogenase complex, mitochondrial Y208S, P11182 | -0.095 ± 0.041
Lipoamide acyltransferase component of branched-chain alpha-keto acid dehydrogenase complex, mitochondrial Y208T, P11182 | -0.073 ± 0.074
Lipoamide acyltransferase component of branched-chain alpha-keto acid dehydrogenase complex, mitochondrial Y208V, P11182 | -0.02 ± 0.039
Lipoamide acyltransferase component of branched-chain alpha-keto acid dehydrogenase complex, mitochondrial Y208W, P11182 | -0.186 ± 0.05
Nanos homolog 2 D85A, P60321 | 0.03 ± 0.11
Nanos homolog 2 D106A, P60321 | -0.206 ± 0.098
Nanos homolog 2 H74A, P60321 | -0.238 ± 0.12
Nanos homolog 2 H95Q, P60321 | -0.092 ± 0.071
Nanos homolog 2 I92Y, P60321 | -0.308 ± 0.14
Nanos homolog 2 K67R, P60321 | -0.197 ± 0.05
Nanos homolog 2 K82R, P60321 | -0.243 ± 0.069
Nanos homolog 2 K112R, P60321 | -0.171 ± 0.096
Nanos homolog 2 L111K, P60321 | 0.292 ± 0.074
Nanos homolog 2 Q80C, P60321 | 0.191 ± 0.11
Nanos homolog 2 Q107R, P60321 | -0.016 ± 0.12
Nanos homolog 2 R73E, P60321 | 0.102 ± 0.067
Nanos homolog 2 S77R, P60321 | -0.003 ± 0.069
Nanos homolog 2 V87G, P60321 | -0.082 ± 0.088
Nanos homolog 2 V89S, P60321 | 0.094 ± 0.066
Nanos homolog 2 V97I, P60321 | 0.008 ± 0.12
Nanos homolog 2 V100L, P60321 | -0.123 ± 0.077
Nanos homolog 2 Y76F, P60321 | -0.14 ± 0.13
Nanos homolog 2 Y113H, P60321 | 0.057 ± 0.11
